Laboratory results taken from US20230242658A1 (published 2023).
Numbering of substitutions follows the chain as printed. Numbers in names are those of the source.

Assays:
[1] = target: T1, human 4-1BB on CHO-K1 cells (human, UniProt Q07011 24-255); experiment: FACS, CHO-K1/hu 4-1BB cells
T1 construct: whole, on cells; also called CHO-K1/hu 4-1BB; CHO-K1/hu4-1BB

[2] = target: T2, histidine-labeled human 4-1BB protein (human, UniProt Q07011 24-186); experiment: BLI Octet RED96, AHC sensor, his-tagged antigen
T2 construct: also called Human 4-1BB protein antigen (histidine-labeled); human 4-1BB protein and his tag (Acrobiosystem, #41B-H5227); not shown: histidine tag
Description: (§1) Specifically, human 4-1BB protein and his tag (Acrobiosystem, #41B-H5227), or cynomolgus monkey 4-1BB protein and his tag (Acrobiosystem, #41B-052H4), were diluted to 400 nM with PBS buffer (pH 7.4) containing 0.1% (w/w) BSA and 0.02% (v/v) Tween 20, and incubated with the AHC sensor. A 40 nM 4-1BB antibody was incubated with the AHC sensor loaded with human 4-1BB protein or monkey 4-1BB protein at 30° C. for 3 min. The reaction mixture was incubated in PBS buffer (pH 7.4) containing 0.1% (v/w) BSA and 0.02% (v/v) Tween 20 at 30° C. for another 5 min The binding and separation signals between the 4-1BB antibody and 4-1BB protein were recorded by Octet Red 96 in real time. The affinity and association and dissociation constants were determined by Octet using software.

[3] = target: T3, histidine-labeled cynomolgus monkey 4-1BB protein (cynomolgus monkey); experiment: BLI Octet RED96, AHC sensor, his-tagged antigen
T3 construct: also called Monkey 4-1BB protein antigen (histidine-labeled); cynomolgus monkey 4-1BB protein and his tag (Acrobiosystem, #41B-052H4)
Description: as §1

[4] = target: T4, human PD-L1 on CHO-K1 cells (human, UniProt Q9NZQ7 19-290); experiment: FACS, CHO-K1/hPD-L1 cells
T4 construct: whole, on cells; also called CHO-K1/hPDL1; CHO-K1/hPD-L1
T4 sequence (Q9NZQ7 19-290): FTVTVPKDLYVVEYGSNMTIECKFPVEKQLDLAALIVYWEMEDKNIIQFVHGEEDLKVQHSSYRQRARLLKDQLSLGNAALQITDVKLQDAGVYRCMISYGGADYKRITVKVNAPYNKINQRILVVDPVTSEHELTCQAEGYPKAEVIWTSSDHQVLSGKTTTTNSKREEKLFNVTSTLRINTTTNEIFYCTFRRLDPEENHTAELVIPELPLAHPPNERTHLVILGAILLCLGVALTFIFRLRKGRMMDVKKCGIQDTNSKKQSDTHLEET

T2 sequence (Q07011 24-186): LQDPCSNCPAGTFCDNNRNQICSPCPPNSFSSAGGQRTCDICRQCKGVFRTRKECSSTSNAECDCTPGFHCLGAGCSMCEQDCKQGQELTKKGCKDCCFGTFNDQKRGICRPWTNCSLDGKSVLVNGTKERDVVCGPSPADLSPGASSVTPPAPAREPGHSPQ
T1 sequence (Q07011 24-255): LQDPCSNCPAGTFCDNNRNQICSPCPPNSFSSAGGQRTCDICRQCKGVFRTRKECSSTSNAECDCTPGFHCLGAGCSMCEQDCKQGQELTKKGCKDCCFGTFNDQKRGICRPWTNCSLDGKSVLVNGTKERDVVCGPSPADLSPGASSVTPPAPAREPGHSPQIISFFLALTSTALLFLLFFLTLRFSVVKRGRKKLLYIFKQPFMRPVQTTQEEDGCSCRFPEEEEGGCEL

B1: PR001768 (antibody, human IgG1, V domains shown)
VH: EVQLLESGGGLVQPGGSLRLSCAASGFTFSNYAMTWVRQAPGKGLEWVSSISGSGDSTYYADSVKGRFTISRDNSKNTLYLQMNSLRAEDTAVYYCAKEGTGTTSDYYYNVDVWGQGTTVTVSS
notes: HCAb, heavy chain only, human IgG1 Fc; also called 1016P0039B9
B1: binds [1].

B2: PR001766 (antibody, human IgG1, V domains shown)
VH: B1 VH with N31S, T35S, V37G, D56G, G100K, S105G, N110D, V111M
notes: HCAb, heavy chain only, human IgG1 Fc; also called 1016P0034F10
B2: binds [1].

B3: PR001771 (antibody, human IgG1, V domains shown)
VH: B1 VH with A40P, D56G
notes: HCAb, heavy chain only, human IgG1 Fc; also called 1016P0042C5
B3: binds [1].

B4: PR001780 (antibody, human IgG1, V domains shown)
VH: EVQLLESGGGLIQPGGSLRLSCAASGFTFSSFAMTWVRQAPGKGLEWVSTISGSGDNTYYADSVKGRFTISRDNSKNTLYLQMNSLRAEDTAVYFCAKEDTAVASDYYYNIDVWGQGTTVTVSS
notes: HCAb, heavy chain only, human IgG1 Fc; also called 1016P0058D11
B4: binds [1].

B5: PR001781 (antibody, human IgG1, V domains shown)
VH: B1 VH with P14L, N31S, G42E, D56G, S57N, G100R, S105G
notes: HCAb, heavy chain only, human IgG1 Fc; also called 1016P007F3
B5: binds [1].

B6: PR001834 (antibody, human IgG1, V domains shown)
VH: EVQLLESGGGLVQPGGSLRLSCAASGFTFSGYAMTWVRQPPEKGLEWVSSISGSGNNTFYADSVKGRFTISRDNSKNTLYLQMNSLRAEDTAVYYCAKEGTTETDDYHYNMDVWGQGTTVTVSS
notes: HCAb, heavy chain only, human IgG1 Fc; also called 1016P0019C9
B6: binds [1].

B7: PR001837 (antibody, human IgG1, V domains shown)
VH: B6 VH with A23E, G31S, T35S, P40A, N56G, N57S
notes: HCAb, heavy chain only, human IgG1 Fc; also called 1016P0024B10
B7: binds [1].

B8: PR001842 (antibody, human IgG1, V domains shown)
VH: EVQLLESGGGLVQPGGSLRLSCAASGFTFSSYAMSWGRQAPGKGLEWVSAISGSGGSTYYADSVKGRFTISRDNSKNTLYLHMNSLRAEDTAVYYCAKEKVATTGDYYYDMDVWGQGTTVTVSS
notes: HCAb, heavy chain only, human IgG1 Fc; also called 1016P0045A3
B8: binds [1].

B9: PR007381 (antibody, human IgG1, V domains shown)
VH: EVQLLESGGGLVQPGGSLRLSCAASGFTFSNYAMSWVRQAPGKGLEWVSSIDASGGDTYYADSVKGRFTISRDNSKNTLYLQMNSLRAEDTAVYYCAKEGSHGTDDSHYDVDVWGQGTTVTVSS
notes: HCAb, variant of PR001838 (F37V, P40A, E42G, T43K, K46E, G53A), human IgG1
B9: binds [1].

B10: PR001830 (antibody, human IgG1, V domains shown)
VH: EVQLLESGGGLVQPGGSLRLSCTASGFTFSNYAMSWVRQAPEKGLEWVSSISGSGGSTFYADSVKGRFTISRDNSKNTLYLQMNSLRAEDTAVYFCAKEGSSETDDHYYNVDVWGQGTTVTVSS
notes: HCAb, heavy chain only, human IgG1 Fc; also called 1016P0014G8
Work on B10 yielded a Kd [2] of 24.9 nM, a Response [2] of 0.307 and a koff [2] of 0.00664 s⁻¹. For the same binder, the kon [2] was 266000 M⁻¹ s⁻¹, the Kd [3] was 18.1 nM and the Response [3] was 0.222. The koff [3] was 0.00347 s⁻¹, the kon [3] was 192000 M⁻¹ s⁻¹ and the EC50 [1] was less than 0.3 nM.

B11: PR001833 (antibody, human IgG1, V domains shown)
VH: B10 VH with T23A, N31S, S101A, S102T, H107Y, Y108H, Y109F, V111T
notes: HCAb, heavy chain only, human IgG1 Fc; also called 1016P0016F8
In the case of B11, the Kd [2] is reported as 23.4 nM, the Response [2] is reported as 0.311 and the koff [2] is reported as 0.00506 s⁻¹. It also gave a kon [2] of 216000 M⁻¹ s⁻¹, a Kd [3] of 22.3 nM and a Response [3] of 0.273. The koff [3] was 0.00309 s⁻¹, the kon [3] was 139000 M⁻¹ s⁻¹ and the EC50 [1] was less than 0.3 nM.

B12: PR007289 (antibody, human IgG1, V domains shown)
VH: EVQLVESGGGLVKPGGSLRLSCAASGFTFSDYYMSWFRQAPGKGLEWVSYISSSGSTQDYADSVKGRFTISRDNAKNSLYLQMNSLRAEDTAVYYCAREREPVAGTLDFDNWGQGTPVTVSS
notes: HCAb, heavy chain only, human IgG1 Fc; also called R1016P145B11
B12: binds [1].

B13: PR007288 (antibody, human IgG1, V domains shown)
VH: B12 VH with S53G, T57I, Q58I, A97S, P102A, N111Y, P117L
notes: HCAb, heavy chain only, human IgG1 Fc; also called R1016P144G12
B13: binds [1].

B14: PR007290 (antibody, human IgG1, V domains shown)
VH: B12 VH with L11V, K13Q, G16R, S56T, Q58I, P102E, N111Y
notes: HCAb, heavy chain only, human IgG1 Fc; also called R1016P145C05
B14: binds [1].

B15: PR001831 (antibody, human IgG1, V domains shown)
VH: EVQLVESGGGVIQPGGSLRLSCEASGFTFSSYAMSWVRQAPEKGLEWVSSISGSGDSTYYADSVKGRFTISRDNSKNTLYLQMNSLRAEDTAGYHCAKEGSNGTDDYHYDIDVWGQGTSVTVSS
notes: HCAb, heavy chain only, human IgG1 Fc; also called 1016P0015C8
B15 gave an EC50 [1] of less than 0.3 nM.

B16: PR001836 (antibody, human IgG1, V domains shown)
VH: EVQLLESGGGLVQPGGSLRLSCAASGFIFSNFAMTWVRQPPEKGLKWVSSINGSGFNTYYTDSVKGRFTISRDNSRNTLYLQMNRLTAEDTAVYFCAKEGSSETDDHYYNVDVWGQGTTVTVSS
notes: HCAb, heavy chain only, human IgG1 Fc; also called 1016P0020G4
For B16, the Kd [2] was 13.5 nM, the Response [2] was 0.294 and the koff [2] was 0.00322 s⁻¹. It also gave a kon [2] of 239000 M⁻¹ s⁻¹, a Kd [3] of 8.89 nM and a Response [3] of 0.25. The koff [3] was 0.00147 s⁻¹, the kon [3] was 165000 M⁻¹ s⁻¹ and the EC50 [1] was less than 0.3 nM.

B17: PR003550 (bispecific antibody, human IgG1, kappa, L234A L235A)
light: DIQMTQSPSTLSASVGDRVTVTCRASQSIYIWLAWYQQKPGKAPNLLIYKASSLETGVPSRFSGSGSGTEFTLTISSLQPDDFATYYCQQYYGSSRTFGQGTKVEIKRTVAAPSVFIFPPSDEQLKSGTASVVCLLNNFYPREAKVQWKVDNALQSGNSQESVTEQDSKDSTYSLSSTLTLSKADYEKHKVYACEVTHQGLSSPVTKSFNRGEC
heavy: EVQLVESGGGLVQPGGSLRLSCAASGFTFSSYWMSWVRQAPGKGLEWVANIKQEGSEKYYVDSVKGRFTISRDNAKNSLYLQMNSLRAEDTAVYYCARDRAVAGAFDIWGQGTMVTVSSASTKGPSVFPLAPSSKSTSGGTAALGCLVKDYFPEPVTVSWNSGALTSGVHTFPAVLQSSGLYSLSSVVTVPSSSLGTQTYICNVNHKPSNTKVDKKVEPKSCDKTHTCPPCPAPEAAGGPSVFLFPPKPKDTLMISRTPEVTCVVVDVSHEDPEVKFNWYVDGVEVHNAKTKPREEQYNSTYRVVSVLTVLHQDWLNGKEYKCKVSNKALGAPIEKTISKAKGQPREPQVYTLPPSREEMTKNQVSLTCLVKGFYPSDIAVEWESNGQPENNYKTTPPVLDSDGSFFLYSKLTVDKSRWQQGNVFSCSVMHEALHNHYTQKSLSLSPGEPKSSDKTHTPPPPPRTEVQLVESGGGVVQPGGSLRLSCAASGFTFSNYAMTWVRQAPEKGLEWVSSISGSGVSTYYADSVKGRFTISRDNSKNTLYLQMTRLTAEDTAVYFCAKEGSSETDDHYYNVDVWGQGTTVTVSS
notes: PD-L1x4-1BB IgG-VH: PR000265 + VH of PR001760 at heavy-chain C-terminus
B17: binds [4].

B18: PR004270 (bispecific antibody, human IgG1)
chain 1: EVQLVESGGGLVQPGGSLRLSCAASGFTFSSYWMSWVRQAPGKGLEWVANIKQEGSEKYYVDSVKGRFTISRDNAKNSLYLQMNSLRAEDTAVYYCARDRAVAGAFDIWGQGTMVTVSSASTKGPSVFPLAPSSKSTSGGTAALGCLVKDYFPEPVTVSWNSGALTSGVHTFPAVLQSSGLYSLSSVVTVPSSSLGTQTYICNVNHKPSNTKVDKKVEPKSC
chain 2: not shown
notes: PD-L1x4-1BB Fab-HCAb symmetric structure: Fab of PR000265, VH of PR001760, human IgG1 (L234A, L235A)
B18: binds [4].

B19: PR004268 (bispecific antibody, human IgG1, kappa, L234A L235A)
light: B17 light
heavy: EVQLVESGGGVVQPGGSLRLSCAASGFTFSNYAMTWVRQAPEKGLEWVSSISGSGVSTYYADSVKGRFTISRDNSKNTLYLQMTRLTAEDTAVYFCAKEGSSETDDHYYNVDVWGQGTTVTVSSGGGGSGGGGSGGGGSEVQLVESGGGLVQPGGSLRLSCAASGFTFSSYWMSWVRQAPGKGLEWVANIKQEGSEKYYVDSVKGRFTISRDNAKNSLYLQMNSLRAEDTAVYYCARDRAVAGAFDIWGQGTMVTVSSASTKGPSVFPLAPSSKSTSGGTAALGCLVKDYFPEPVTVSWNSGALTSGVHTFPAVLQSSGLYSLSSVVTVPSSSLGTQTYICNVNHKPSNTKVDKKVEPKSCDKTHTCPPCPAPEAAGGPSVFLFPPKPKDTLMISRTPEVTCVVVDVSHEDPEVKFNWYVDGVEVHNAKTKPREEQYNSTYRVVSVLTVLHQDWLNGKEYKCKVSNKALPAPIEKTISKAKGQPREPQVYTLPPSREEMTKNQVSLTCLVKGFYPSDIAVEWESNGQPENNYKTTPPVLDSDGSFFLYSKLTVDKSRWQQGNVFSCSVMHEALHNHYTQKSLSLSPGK
notes: PD-L1x4-1BB IgG-VH: VH of PR001760 at heavy-chain N-terminus of PR000265, linker GS_15
B19: binds [4].

B20: PR001763 (antibody, human IgG1, V domains shown)
VH: B10 VH with S85R, R87T, F95Y, S102N, E103G, H107Y, Y108H, N110D, V111I
notes: HCAb, heavy chain only, human IgG1 Fc; also called 1016P0016E9
B20: binds [1].

B21: PR001774 (antibody, human IgG1, V domains shown)
VH: B4 VH with L5V, I12V, G42E, N57T, N74S, T91S, D100A, V103M, N110G, I111V
notes: HCAb, heavy chain only, human IgG1 Fc; also called 1016P0045F7
B21: binds [1].

B22: PR001775 (antibody, human IgG1, V domains shown)
VH: EVQLLESGGGLVQSGGSLRLSCAASGFTFSSYAMSWVRQAPGKGLEWVSAISGSGGSTDYADSVKGRFTISRDNSTNTLYLQMNSLRAEDTAVYYCAKERAYDYSNYVDFDYWGQGTLVTVSS
notes: HCAb, heavy chain only, human IgG1 Fc; also called 1016P0046A9
B22: binds [1].

B23: PR001776 (antibody, human IgG1, V domains shown)
VH: EVQLLESGGGLVQPGGSLRLSCAASGFTFSSYAMSWVRQAPEKGLEWVSAISSSGGSTYYADSVKGRFTISRDNSKNTLYLQMNSLRAEDTAVYYCAKDGVTTPSYYYYYDMDVWGQGTTVTVSS
notes: HCAb, heavy chain only, human IgG1 Fc; also called 1016P0049C7
B23: binds [1].

B24: PR004469 (antibody, human IgG1, V domains shown)
VH: B9 VH with V37F, A40P, G42E, K43T, E46K
notes: HCAb, PTM variant of PR001838 (G53A), human IgG1
B24: binds [1].

B25: PR001764 (antibody, human IgG1, V domains shown)
VH: B6 VH with G31S, T35S, P40A, S50A, S54G, N56G, N57S, F59Y, N84D, R87K
notes: HCAb, heavy chain only, human IgG1 Fc; also called 1016P0022E5
For B25, the EC50 [1] was less than 0.3 nM.
